In patent publication US20110076248A1 (MYRIAD GENETICS, published 2011):

B1: binding domain-wild type p6gag construct (HIV1 p6 peptide of the HIV1.NL43 strain GAG protein in pGBT.Q) (other)
chain: LQSRPEPTAPPEESFRFGEETTTPSQKQEPIDKELYPLASLRSLFGSDPSSQ
B2: binding domain-mutant p6gag construct p6(A9R) (other)
chain: LQSRPEPTRPPEESFRFGEETTTPSQKQEPIDKELYPLASLRSLFGSDPSSQ
notes: The mutation number counts on p6gag
B3: binding domain-mutant p6gag construct p6(P7L) (other)
chain: LQSRPELTAPPEESFRFGEETTTPSQKQEPIDKELYPLASLRSLFGSDPSSQ
notes: as for B2
B4: binding domain-mutant p6gag construct p6(P10L) (other)
chain: LQSRPEPTALPEESFRFGEETTTPSQKQEPIDKELYPLASLRSLFGSDPSSQ
notes: as for B2

Key:
[1] = biological target: T1, activation domain-Tsg101 construct (full-length Tsg101 in GADpN2: SV40NLS-GAL4 (768-881)-Tsg101) (human, UniProt P04386 768-881; Q99816 1-390); test: cell-based or functional assay
T1 sequence: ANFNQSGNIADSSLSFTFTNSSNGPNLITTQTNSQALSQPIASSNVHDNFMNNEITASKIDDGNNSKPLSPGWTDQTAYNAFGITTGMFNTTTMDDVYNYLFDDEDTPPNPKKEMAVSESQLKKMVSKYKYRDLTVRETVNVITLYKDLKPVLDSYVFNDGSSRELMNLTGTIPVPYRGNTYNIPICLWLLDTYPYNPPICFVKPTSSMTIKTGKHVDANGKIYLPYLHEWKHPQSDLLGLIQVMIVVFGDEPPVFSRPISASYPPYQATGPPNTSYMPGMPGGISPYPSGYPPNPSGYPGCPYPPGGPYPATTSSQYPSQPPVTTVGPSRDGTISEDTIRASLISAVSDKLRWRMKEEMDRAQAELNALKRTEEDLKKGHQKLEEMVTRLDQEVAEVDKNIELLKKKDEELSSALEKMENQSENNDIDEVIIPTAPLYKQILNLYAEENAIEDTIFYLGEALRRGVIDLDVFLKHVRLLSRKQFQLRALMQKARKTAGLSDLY

[2] = biological target: T1, activation domain-Tsg101 construct …; test: yeast two-hybrid, filter lift β-Gal assay

Row | Binder | β-galactosidase activity in the two-hybrid liquid culture assay [1] | binding result [2]
1 | B1 | > 300 fold over background | –
2 | B2 | – | no binding
3 | B3 | – | no binding
4 | B4 | – | no binding
